First the molecules themselves.
B1: RNA-binding E3 ubiquitin-protein ligase MEX3C, residues 325 to 391; numbered along this chain, Q5U5Q3 (parent)
chain: GQTTVQVRVPYRVVGLVVGPKGATIKRIQQQTHTYIVTPSRDKEPVFEVTGMPENVDRAREEIEMHI

± gives the uncertainty stated by the source.

The data set covers variants of B1. Briefly: abundance fitness (aPCA) (normalised: wild type 0, dead -1); higher = more abundant; growth selection in yeast, the domain comes from the species named. Conditions: Homo sapiens.
Take GQTTVQVRVPYRVVGLKVGPKGATIKRIQQQTHTYIVTPSRDKEPVFEVTGMPENVDRAREEIEMHI [V17K]: the abundance fitness was -0.533 ± 0.12.
Regarding GQTTVQVRVPYRVVGLRVGPKGATIKRIQQQTHTYIVTPSRDKEPVFEVTGMPENVDRAREEIEMHI [V17R], the abundance fitness is -0.751 ± 0.082.
The value for GQTTVQVRVPYRVVGLWVGPKGATIKRIQQQTHTYIVTPSRDKEPVFEVTGMPENVDRAREEIEMHI [V17W] was -0.635 ± 0.084.
Then GQTTVQVRVPYRVVGLSVGPKGATIKRIQQQTHTYIVTPSRDKEPVFEVTGMPENVDRAREEIEMHI [V17S], with -0.872 ± 0.11; and GQTTVQVRVPYRVVGLIVGPKGATIKRIQQQTHTYIVTPSRDKEPVFEVTGMPENVDRAREEIEMHI [V17I], with 0.013 ± 0.099; and GQTTVQVRVPYRVVGLYVGPKGATIKRIQQQTHTYIVTPSRDKEPVFEVTGMPENVDRAREEIEMHI [V17Y], with -0.505 ± 0.11.
With GQTTVQVRVPYRVVGLLVGPKGATIKRIQQQTHTYIVTPSRDKEPVFEVTGMPENVDRAREEIEMHI [V17L], the abundance fitness was -0.415 ± 0.076.
The value for GQTTVQVRVPYRVVGLHVGPKGATIKRIQQQTHTYIVTPSRDKEPVFEVTGMPENVDRAREEIEMHI [V17H] was -0.149 ± 0.13.
As for GQTTVQVRVPYRVVGLMVGPKGATIKRIQQQTHTYIVTPSRDKEPVFEVTGMPENVDRAREEIEMHI [V17M], the abundance fitness is -0.741 ± 0.17.
The value for GQTTVQVRVPYRVVGLTVGPKGATIKRIQQQTHTYIVTPSRDKEPVFEVTGMPENVDRAREEIEMHI [V17T] was -0.524 ± 0.098; that for GQTTVQVRVPYRVVGLQVGPKGATIKRIQQQTHTYIVTPSRDKEPVFEVTGMPENVDRAREEIEMHI [V17Q] was -0.529 ± 0.17; that for GQTTVQVRVPYRVVGLVNGPKGATIKRIQQQTHTYIVTPSRDKEPVFEVTGMPENVDRAREEIEMHI [V18N] was -0.305 ± 0.14.
With GQTTVQVRVPYRVVGLVGGPKGATIKRIQQQTHTYIVTPSRDKEPVFEVTGMPENVDRAREEIEMHI [V18G], the abundance fitness was -0.794 ± 0.08.
Then GQTTVQVRVPYRVVGLVQGPKGATIKRIQQQTHTYIVTPSRDKEPVFEVTGMPENVDRAREEIEMHI [V18Q], with -0.63 ± 0.14; and GQTTVQVRVPYRVVGLVDGPKGATIKRIQQQTHTYIVTPSRDKEPVFEVTGMPENVDRAREEIEMHI [V18D], with -0.367 ± 0.13.
The value for GQTTVQVRVPYRVVGLVEGPKGATIKRIQQQTHTYIVTPSRDKEPVFEVTGMPENVDRAREEIEMHI [V18E] was -0.284 ± 0.062; that for GQTTVQVRVPYRVVGLVPGPKGATIKRIQQQTHTYIVTPSRDKEPVFEVTGMPENVDRAREEIEMHI [V18P] was -0.771 ± 0.13.
GQTTVQVRVPYRVVGLVSGPKGATIKRIQQQTHTYIVTPSRDKEPVFEVTGMPENVDRAREEIEMHI [V18S]: the abundance fitness is -0.523 ± 0.074.
With GQTTVQVRVPYRVVGLVHGPKGATIKRIQQQTHTYIVTPSRDKEPVFEVTGMPENVDRAREEIEMHI [V18H], the abundance fitness was -0.456 ± 0.15.
The value for GQTTVQVRVPYRVVGLVWGPKGATIKRIQQQTHTYIVTPSRDKEPVFEVTGMPENVDRAREEIEMHI [V18W] was -0.639 ± 0.13; that for GQTTVQVRVPYRVVGLVYGPKGATIKRIQQQTHTYIVTPSRDKEPVFEVTGMPENVDRAREEIEMHI [V18Y] was -0.256 ± 0.099; that for GQTTVQVRVPYRVVGLVIGPKGATIKRIQQQTHTYIVTPSRDKEPVFEVTGMPENVDRAREEIEMHI [V18I] was 0.019 ± 0.16.
Turning to GQTTVQVRVPYRVVGLVKGPKGATIKRIQQQTHTYIVTPSRDKEPVFEVTGMPENVDRAREEIEMHI [V18K], the abundance fitness was -0.541 ± 0.086.
Then GQTTVQVRVPYRVVGLVTGPKGATIKRIQQQTHTYIVTPSRDKEPVFEVTGMPENVDRAREEIEMHI [V18T], with -0.26 ± 0.067.
The value for GQTTVQVRVPYRVVGLVMGPKGATIKRIQQQTHTYIVTPSRDKEPVFEVTGMPENVDRAREEIEMHI [V18M] was -0.119 ± 0.093; that for GQTTVQVRVPYRVVGLVFGPKGATIKRIQQQTHTYIVTPSRDKEPVFEVTGMPENVDRAREEIEMHI [V18F] was -0.374 ± 0.13; that for GQTTVQVRVPYRVVGLVRGPKGATIKRIQQQTHTYIVTPSRDKEPVFEVTGMPENVDRAREEIEMHI [V18R] was -0.508 ± 0.061.
As for GQTTVQVRVPYRVVGLVCGPKGATIKRIQQQTHTYIVTPSRDKEPVFEVTGMPENVDRAREEIEMHI [V18C], the abundance fitness is -0.258 ± 0.083.
Take GQTTVQVRVPYRVVGLVAGPKGATIKRIQQQTHTYIVTPSRDKEPVFEVTGMPENVDRAREEIEMHI [V18A]: the abundance fitness is -0.433 ± 0.08.
The value for GQTTVQVRVPYRVVGLVVHPKGATIKRIQQQTHTYIVTPSRDKEPVFEVTGMPENVDRAREEIEMHI [G19H] was -0.694 ± 0.24; that for GQTTVQVRVPYRVVGLVVIPKGATIKRIQQQTHTYIVTPSRDKEPVFEVTGMPENVDRAREEIEMHI [G19I] was -1.08 ± 0.49.
In the case of GQTTVQVRVPYRVVGLVVDPKGATIKRIQQQTHTYIVTPSRDKEPVFEVTGMPENVDRAREEIEMHI [G19D], the abundance fitness is -0.716 ± 0.15.
Turning to GQTTVQVRVPYRVVGLVVEPKGATIKRIQQQTHTYIVTPSRDKEPVFEVTGMPENVDRAREEIEMHI [G19E], the abundance fitness was -0.897 ± 0.12.
GQTTVQVRVPYRVVGLVVCPKGATIKRIQQQTHTYIVTPSRDKEPVFEVTGMPENVDRAREEIEMHI [G19C]: the abundance fitness is -0.844 ± 0.16.
Then GQTTVQVRVPYRVVGLVVMPKGATIKRIQQQTHTYIVTPSRDKEPVFEVTGMPENVDRAREEIEMHI [G19M], with -1.03 ± 0.3; and GQTTVQVRVPYRVVGLVVAPKGATIKRIQQQTHTYIVTPSRDKEPVFEVTGMPENVDRAREEIEMHI [G19A], with -0.86 ± 0.16; and GQTTVQVRVPYRVVGLVVFPKGATIKRIQQQTHTYIVTPSRDKEPVFEVTGMPENVDRAREEIEMHI [G19F], with -0.863 ± 0.27.
The value for GQTTVQVRVPYRVVGLVVNPKGATIKRIQQQTHTYIVTPSRDKEPVFEVTGMPENVDRAREEIEMHI [G19N] was -0.64 ± 0.31; that for GQTTVQVRVPYRVVGLVVKPKGATIKRIQQQTHTYIVTPSRDKEPVFEVTGMPENVDRAREEIEMHI [G19K] was -0.785 ± 0.14.
As for GQTTVQVRVPYRVVGLVVLPKGATIKRIQQQTHTYIVTPSRDKEPVFEVTGMPENVDRAREEIEMHI [G19L], the abundance fitness is -0.951 ± 0.13.
